According to paper doi:10.1101/2025.11.29.691178 (bioRxiv, 2025):

T1: Band 3 (SLC4A1), endogenous in human red blood cells (human (endogenous in RBCs), UniProt P02730 1-911)
T1 sequence: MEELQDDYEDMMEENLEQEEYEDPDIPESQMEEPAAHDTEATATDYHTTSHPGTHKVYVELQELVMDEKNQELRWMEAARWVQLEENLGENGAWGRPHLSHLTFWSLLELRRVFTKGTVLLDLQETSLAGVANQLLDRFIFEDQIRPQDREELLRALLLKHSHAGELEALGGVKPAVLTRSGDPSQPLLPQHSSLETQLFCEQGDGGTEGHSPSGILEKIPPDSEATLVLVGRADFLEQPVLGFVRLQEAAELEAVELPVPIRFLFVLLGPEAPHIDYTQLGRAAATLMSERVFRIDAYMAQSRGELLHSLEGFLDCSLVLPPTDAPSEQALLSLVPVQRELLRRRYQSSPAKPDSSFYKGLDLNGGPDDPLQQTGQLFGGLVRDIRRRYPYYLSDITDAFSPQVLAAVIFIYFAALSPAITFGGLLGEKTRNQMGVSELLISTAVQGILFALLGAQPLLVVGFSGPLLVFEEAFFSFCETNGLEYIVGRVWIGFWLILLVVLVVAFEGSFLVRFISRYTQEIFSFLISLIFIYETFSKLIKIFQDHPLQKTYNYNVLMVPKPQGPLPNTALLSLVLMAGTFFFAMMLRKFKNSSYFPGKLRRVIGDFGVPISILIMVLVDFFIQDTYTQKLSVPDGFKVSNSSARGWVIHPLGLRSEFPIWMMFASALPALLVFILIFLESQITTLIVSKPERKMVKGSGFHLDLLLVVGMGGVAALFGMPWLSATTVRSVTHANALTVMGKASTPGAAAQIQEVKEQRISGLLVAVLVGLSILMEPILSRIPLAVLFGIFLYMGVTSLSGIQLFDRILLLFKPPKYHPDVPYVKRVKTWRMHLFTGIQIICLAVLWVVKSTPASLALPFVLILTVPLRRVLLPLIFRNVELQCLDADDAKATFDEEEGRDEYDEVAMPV

T2: human biliverdin reductase B (BLVRB), recombinant, full length (human, UniProt P30043 1-206)
T2 sequence: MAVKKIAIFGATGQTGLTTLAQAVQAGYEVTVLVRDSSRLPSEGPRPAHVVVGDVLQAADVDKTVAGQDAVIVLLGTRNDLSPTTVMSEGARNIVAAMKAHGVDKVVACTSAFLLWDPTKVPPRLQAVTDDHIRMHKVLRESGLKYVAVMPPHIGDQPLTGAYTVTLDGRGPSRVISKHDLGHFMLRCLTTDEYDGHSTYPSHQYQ


Key:
[1] = target: T1, Band 3 (SLC4A1), endogenous in human …; test: cross-linking
[2] = target: T2, human biliverdin reductase B (BLVRB), …; test: NMR titration

fold change of cross-links, hypoxia against normoxia [1] [fold]	binding result [2]	Binder
3	–	hemoglobin (deoxyhemoglobin tetramer), endogenous in human red blood cells (complex) chain 1: not shown chain 2: not shown
–	binds	Band 3 (SLC4A1) N-terminal residues 1-56, recombinant (domain or fragment) MEELQDDYEDMMEENLEQEEYEDPDIPESQMEEPAAHDTEATATDYHTTSHPGTHK
–	binds	MEELQDDYEDMMEENLEQEEYEDPDIPESQ (domain or fragment) [Band 3 (SLC4A1) N-terminal residues 1-30, recombinant]
